The data set can be described thus: protein stability index of a GFP-peptide fusion (GPS, HEK-293T) (PSI 1-6); higher = more stable. The settings on record: c terminus: a fixed tail appended.

± gives the standard deviation.
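Also: 24-mer peptide tiles fused after GFP, lentivirally expressed, FACS-sorted into six equal bins by GFP/DsRed ratio, decoded by Illumina sequencing, PSI is the read-weighted mean bin number.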

With FCQMLAVVETINAAIGVTTSPVLP [HACD3], the protein stability index is 2.69 ± 0.4 (treatment: DMSO) and 2.54 ± 0.23 (treatment: MLN4924 1 uM, 8 h).

As for FDAALVSFINFFTSVLATLVVFAV [SLC6A17], the protein stability index by setting is: (treatment: DMSO) 3.44 ± 0.4; (treatment: MLN4924 1 uM, 8 h) 3.44 ± 0.97.

FEDAKEKMREFTKTIKRPFGVKYN [TPH1]: the protein stability index stood at 2.9 ± 0.21 (treatment: DMSO) and 3.1 ± 0.26 (treatment: MLN4924 1 uM, 8 h).

For the sequence FEGRTPMHVACQHGQENIVRILLR [RIPK4], the protein stability index worked out at 2.95 ± 0.49 (treatment: DMSO) and 2.95 ± 0.2 (treatment: MLN4924 1 uM, 8 h).

Take FELEDSNEIFTQLYRTLFSVINNG [PDS5B]: the protein stability index runs as follows: (treatment: DMSO) 2.15 ± 0.47; (treatment: MLN4924 1 uM, 8 h) 2.41 ± 0.23.

For FENGQKAAVVHHFESFPAGSTLIF [TOR1AIP2], the protein stability index was 2.05 ± 0.42 (treatment: DMSO) and 2.12 ± 0.2 (treatment: MLN4924 1 uM, 8 h).

In the case of FEQTPALTKHEWTEALGCDPPLSQ [ZNF8], the protein stability index (treatment: DMSO) came out at 4.56 ± 0.26 and the protein stability index (treatment: MLN4924 1 uM, 8 h) is 4.6 ± 0.13.

Under “treatment: MLN4924 1 uM, 8 h”, FHIMKRKFTNKEWETIRSFKDEWT [AASDHPPT] displayed a protein stability index of 2.09 ± 0.16.

Where the note is “treatment: DMSO”, FIFTFVKKKKIGFYFEVCGMMVES [PCDHGA10] yielded a protein stability index of 3.34 ± 0.57.

Consider FKDSAGKSPTGLKLKNDTENHQPV [ZNF75A], for which the protein stability index worked out at 4.88 ± 0.22 (treatment: DMSO) and 5.03 ± 0.18 (treatment: MLN4924 1 uM, 8 h).

Take FKWYLENVYPEMRVYNNTLTYGEV [GALNT9]: the protein stability index (treatment: DMSO) worked out at 2.38 ± 0.48 and the protein stability index (treatment: MLN4924 1 uM, 8 h) was 2.43 ± 0.35.

Regarding FLEALSSRYLGDSGLDDFFLDIDT [SERTAD3], the protein stability index came to 2.4 ± 0.4 (treatment: DMSO) and 2.41 ± 0.39 (treatment: MLN4924 1 uM, 8 h).

FLIGAYAVIYLKKTPEEAYRALLS [CDC14A]: the protein stability index by setting is: (treatment: DMSO) 2.71 ± 0.8; (treatment: MLN4924 1 uM, 8 h) 2.7 ± 0.6.

For the sequence FLLLYLFTLGTNAIIISTIVLDRA [OR10K2], the protein stability index is, setting by setting: (treatment: DMSO) 3.39 ± 0.28; (treatment: MLN4924 1 uM, 8 h) 3.23 ± 0.53.

As for FLSYYRLTRFLSRVIKCDPDCLRA [CCND1], the protein stability index reads like this: (treatment: DMSO) 2.23 ± 0.56; (treatment: MLN4924 1 uM, 8 h) 2.25 ± 0.54.

Turning to FLYSHGVPRTLSPHQYHSVHGVGM [TBX5], the protein stability index reads like this: (treatment: DMSO) 2.31 ± 0.38; (treatment: MLN4924 1 uM, 8 h) 2 ± 0.24.

Regarding FMEKRNQWLVSQLSAASPDTGHDS [TRAF3IP2], the protein stability index reads like this: (treatment: DMSO) 2.76 ± 0.34; (treatment: MLN4924 1 uM, 8 h) 3.21 ± 0.58.

With FNEQTWEVSQQDPSHGEVGEHKDR [ZSCAN9], the protein stability index is, setting by setting: (treatment: DMSO) 5.38 ± 0.26; (treatment: MLN4924 1 uM, 8 h) 5.35 ± 0.17.

FQILKYLFQIDVYDFMNSAFSPIV [MIA2]: the protein stability index by setting is: (treatment: DMSO) 2.75 ± 0.038; (treatment: MLN4924 1 uM, 8 h) 2.85 ± 1.

FQIYDKEASGYVDRDMFFKICESL [EFHC1]: the protein stability index was determined as 2.29 ± 0.15 (treatment: DMSO) and 2.5 ± 0.15 (treatment: MLN4924 1 uM, 8 h).

As for FQMEKIEHGYENMNHFTVNLNREE [TRIM55], the protein stability index by setting is: (treatment: DMSO) 3.21 ± 0.47; (treatment: MLN4924 1 uM, 8 h) 3.57 ± 0.59.

Take FRNIKQEPFSARVLVLCVFNSILP [SOAT1]: the protein stability index reads like this: (treatment: DMSO) 2.9 ± 0.35; (treatment: MLN4924 1 uM, 8 h) 2.87 ± 0.59.

Consider FRRAPSWRKRFRPREHHGRGGMLS [PPFIA4], for which the protein stability index was 3.11 ± 0.27 (treatment: DMSO) and 3.99 ± 0.078 (treatment: MLN4924 1 uM, 8 h).

FRRGEKLRVISDEGGWWKAISLST [SLA] registered a protein stability index (treatment: DMSO) of 3.3 ± 1.1 and a protein stability index (treatment: MLN4924 1 uM, 8 h) of 2.13 ± 0.72.

Turning to FSFLGLLALGVSLLCNAITGITLL [PTGFR], the protein stability index reads like this: (treatment: DMSO) 2.77 ± 0.31; (treatment: MLN4924 1 uM, 8 h) 3.09 ± 0.98.

With FSRENLSKDLYLISQMDSDQFIPI [LARP4], the protein stability index turned out to be 2.17 ± 0.45 (treatment: DMSO) and 2.13 ± 0.36 (treatment: MLN4924 1 uM, 8 h).

FSTGIKMGQHISLAPIHKLEEALY [MNAT1]: the protein stability index (treatment: DMSO) worked out at 2.28 ± 0.48 and the protein stability index (treatment: MLN4924 1 uM, 8 h) stood at 2.08 ± 0.26.

Turning to FSTYTSDKDENKLSEASGGRAENG [ZC3H15], the protein stability index by setting is: (treatment: DMSO) 5.38 ± 0.44; (treatment: MLN4924 1 uM, 8 h) 5.23 ± 0.58.

As to FTNCYIYNKPTDDIVLMAQALEKI [BRD3], the protein stability index by setting is: (treatment: DMSO) 2.43 ± 0.45; (treatment: MLN4924 1 uM, 8 h) 1.97 ± 0.12.

In the case of FTQPLLPAFTVWCGSFQVTTGLQV [FSD1], the protein stability index is, setting by setting: (treatment: DMSO) 3 ± 0.12; (treatment: MLN4924 1 uM, 8 h) 3.03 ± 0.5.

As for FTVRPDVTQNSTAEPSRFSSSDSD [FCHO1], the protein stability index reads like this: (treatment: DMSO) 5.09 ± 0.32; (treatment: MLN4924 1 uM, 8 h) 5.06 ± 0.14.

Turning to FVEEIKKLATQHKQLISQTKKKQW [ZMYND11], the protein stability index reads like this: (treatment: DMSO) 2.73 ± 0.77; (treatment: MLN4924 1 uM, 8 h) 2.13 ± 0.33.

For the sequence FVGAGRMAGAIAQGLIRAGKVEAQ [PYCR3], the protein stability index by setting is: (treatment: DMSO) 2.96 ± 0.52; (treatment: MLN4924 1 uM, 8 h) 2.9 ± 0.33.

Turning to FVHELHLSRLQRVKFCLLGALLAP [LPCAT4], the protein stability index came out at 2.41 ± 0.71 (treatment: DMSO) and 2.06 ± 0.34 (treatment: MLN4924 1 uM, 8 h).

Regarding FVLDENDNAPAVLHPRPDWEHSAP [PCDHGC5], the protein stability index reads like this: (treatment: DMSO) 3.33 ± 0.22; (treatment: MLN4924 1 uM, 8 h) 3.62 ± 0.31.

Regarding FVLNRLQYAIISEAWRLVEEGIVS [CRYL1], the protein stability index (treatment: DMSO) turned out to be 3.17 ± 0.66 and the protein stability index (treatment: MLN4924 1 uM, 8 h) is 3.09 ± 0.24.

FVQREEQLQFLIRYHRFISFALYL [CDS1]: the protein stability index reads like this: (treatment: DMSO) 2.4 ± 0.68; (treatment: MLN4924 1 uM, 8 h) 2.68 ± 0.9.

Take FYQLVWSALPFITYLENKGHRYPC [POP5]: the protein stability index is, setting by setting: (treatment: DMSO) 2.88 ± 0.69; (treatment: MLN4924 1 uM, 8 h) 3.09 ± 0.53.

As to GAAAQGQTQTVAAQAQALAAQAAA [PI4K2A], the protein stability index runs as follows: (treatment: DMSO) 5.07 ± 0.21; (treatment: MLN4924 1 uM, 8 h) 4.95 ± 0.21.

In the case of GACIVNSENKIVGIGYNGMPNGCS [DCTD], the protein stability index is, setting by setting: (treatment: DMSO) 3.04 ± 0.33; (treatment: MLN4924 1 uM, 8 h) 3.21 ± 0.43.

Turning to GALETRSLKDHKVSFLRSGTKLIF [C2CD2L], the protein stability index reads like this: (treatment: DMSO) 2.13 ± 0.24; (treatment: MLN4924 1 uM, 8 h) 2.1 ± 0.42.

With GANKEVQELLERGLLQLDHRGLRC [RSAD1], the protein stability index by setting is: (treatment: DMSO) 3.39 ± 0.12; (treatment: MLN4924 1 uM, 8 h) 3.66 ± 0.31.

As for GCGADSKKKRPPQPPEESQPPQSQ [PLK2], the protein stability index amounted to 5.52 ± 0.35 (treatment: DMSO) and 5.53 ± 0.18 (treatment: MLN4924 1 uM, 8 h).

The sequence GCGYGCQLHHVVYCFMIAYGTQRT [FUT8] had a protein stability index (treatment: DMSO) of 3.19 ± 0.45 and a protein stability index (treatment: MLN4924 1 uM, 8 h) of 3.06 ± 0.57.

Regarding GCLGHGSLTDISQPTIVEALLGYE [NEK8], the protein stability index is, setting by setting: (treatment: DMSO) 3.1 ± 0.11; (treatment: MLN4924 1 uM, 8 h) 3.18 ± 0.4.

With GDFWRMIWEQRSATVVMMTKLEER [PTPRD], the protein stability index is, setting by setting: (treatment: DMSO) 2.77 ± 0.38; (treatment: MLN4924 1 uM, 8 h) 2.36 ± 0.18.

With GDIIRLEHKETSRNLHSHYHEAPM [POMT2], the protein stability index is, setting by setting: (treatment: DMSO) 3.35 ± 0.13; (treatment: MLN4924 1 uM, 8 h) 3.57 ± 0.12.

As to GDSASEEKSGSAEPFVLPASSVES [FBXO34], the protein stability index (treatment: DMSO) was found to be 5.39 ± 0.33 and the protein stability index (treatment: MLN4924 1 uM, 8 h) stood at 5.42 ± 0.42.

Take GEALGRDHSEHLSGSSYRDALQRY [RBMY1A1]: the protein stability index runs as follows: (treatment: DMSO) 4.33 ± 0.22; (treatment: MLN4924 1 uM, 8 h) 4.26 ± 0.29.

As to GEDCKLPPQPCATACKPVIRVPSV [KRT36], the protein stability index amounted to 3.3 ± 0.22 (treatment: DMSO) and 3.23 ± 0.22 (treatment: MLN4924 1 uM, 8 h).

As for GENSDCHRDSSQAIPITELTKSQV [ZNF8], the protein stability index came to 4.94 ± 0.12 (treatment: DMSO) and 5.29 ± 0.23 (treatment: MLN4924 1 uM, 8 h).

The sequence GERPEEGVAGGLNRNQGLNRLMLA [TCF25] displayed a protein stability index (treatment: DMSO) of 3.88 ± 0.44 and a protein stability index (treatment: MLN4924 1 uM, 8 h) of 4.02 ± 0.47.

The sequence GFGILGHSQNLAKQQRNEVSFVIH [SEPHS2] registered a protein stability index (treatment: DMSO) of 2.25 ± 0.47 and a protein stability index (treatment: MLN4924 1 uM, 8 h) of 2.32 ± 0.32.

The values above are taken from the supplement of paper PMC10567573.
